# Values of other authors as cited in publication PMC8393326, “A Thermodynamic Analysis of the Binding Specificity between Four Human PDZ Domains and Eight Host, Viral and Designed Ligands” (Biomolecules, 2021).
# Assays:
# [1] = target: phosphorylated ERBB2 peptide (Homo sapiens)
# [2] = target: ERBB2 peptide (Homo sapiens)
# Sequence of Erbin PDZ (Q96RT1 1318-1412): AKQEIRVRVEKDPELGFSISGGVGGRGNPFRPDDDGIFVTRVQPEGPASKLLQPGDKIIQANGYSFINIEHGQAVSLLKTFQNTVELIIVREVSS
substance,measurement,setting,value
Erbin PDZ (from UniProt Q96RT1),Kd,[1],128 µM
same,Kd,[2],50 µM
